# Experiments:
# [1] = target: T1, anti-CD28 Fab (SEQ ID NOs: 202, 203); test: phage ELISA on captured Fab, wells pre-incubated with CD28 antigen (competitor);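 also: clonal phage ELISA with wells pretreated with CD28 plus blocking buffer before phage addition, bound phage detected by HRP-linked anti-M13 antibody, reference wells got blocking buffer only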
# T1 construct: biotinylated and captured on neutravidin coated plates in the phage ELISA
# Protocol: (§1) Clonal phage were harvested as crude supernatants and screened via standard ELISAs. […] Prior to the addition of clonal phage, wells were incubated with blocking buffer and CD28 antigen or blocking buffer alone. Without washing or aspirating, clonal phage supernatants were then added to the wells and incubated for a short time. Wells were then washed followed by detection of bound phage using a horse radish conjugated anti-M13 antibody.
# [2] = target: T1, anti-CD28 Fab (SEQ ID NOs: 202, 203); test: phage ELISA on captured Fab;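 also: ELISA with clonal phage supernatants added to wells preincubated with CD28 antigen or with blocking buffer only, bound phage detected by HRP-conjugated anti-M13 antibody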
# Protocol: as §1
# [3] = target: Anti-CD28 Fab (SEQ ID NOs: 202, 203); test: phage binding ELISA on captured Fab;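 also: clonal phage supernatants added briefly to wells pre-incubated with CD28 antigen or with blocking buffer only, then washed, bound phage read by ELISA using HRP-coupled anti-M13 antibody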
# Protocol: as §1
# [4] = target: Anti-CD28 Fab (SEQ ID NOs: 202, 203); test: phage binding ELISA on captured Fab, competitor CD28 antigen;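 also: clonal phage supernatant binding in wells preincubated with CD28 antigen in blocking buffer, detected by HRP-conjugated anti-M13 antibody ELISA, compared with blocking buffer alone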
# Protocol: as §1
# Anti-CD28 Fab (SEQ ID NOs: 202, 203), sequence (VH, as listed by the source, chain 1 of 2): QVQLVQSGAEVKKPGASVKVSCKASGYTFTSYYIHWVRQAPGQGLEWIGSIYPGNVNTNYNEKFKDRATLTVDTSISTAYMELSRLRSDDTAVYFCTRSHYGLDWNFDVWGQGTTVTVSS
# Anti-CD28 Fab (SEQ ID NOs: 202, 203), sequence (VL, as listed by the source, chain 2 of 2): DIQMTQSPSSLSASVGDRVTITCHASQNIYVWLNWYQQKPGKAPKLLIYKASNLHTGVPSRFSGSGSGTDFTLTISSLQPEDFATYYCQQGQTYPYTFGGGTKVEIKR
# T1 sequence (VH, as listed by the source, chain 1 of 2): as the sequence (VH, as listed by the source, chain 1 of 2) above
# T1 sequence (VL, as listed by the source, chain 2 of 2): as the sequence (VL, as listed by the source, chain 2 of 2) above
Binder,Anti-CD28 Fab signal in the presence of CD28 [1],"Anti-CD28 Fab (SEQ ID NOs: 202, 203) signal [2]","Anti-CD28 Fab (SEQ ID NOs: 202, 203) signal [3]",Anti-CD28 Fab signal in the presence of CD28 [4]
"YCDGHSSLYMHKCL (on phage, pIII fusion) [Phage-454]",0.07,1.67,,
YCDGHLETYMQKCL [Phage-865],,,0.53,0.08
"YCDGHSEQYMSKCL (on phage, pIII fusion) [Phage-451]",0.07,1.68,,
"YCDGHSEVYMAKCL (on phage, pIII fusion) [Phage-471]",0.06,1.66,,
"YCDGHSLQYMSKCL (on phage, pIII fusion) [Phage-589]",0.06,1.45,,
YCDGHTPQFRAKCL [Phage-859],,,0.59,0.07
"YCDGHSTEYMEKCL (on phage, pIII fusion) [Phage-453]",0.08,1.68,,
"YCDGHSQEYMEKCL (on phage, pIII fusion) [Phage-564]",0.06,1.5,,
"YCDGHSVEYMEKCL (on phage, pIII fusion) [Phage-476]",0.09,1.65,,
"YCDGHAPQWMAKCL (on phage, pIII fusion) [Phage-457]",0.1,1.67,,
YCDGHIEMYMSKCM [Phage-855],,,0.61,0.06
YCAGHTTEYIVKCL [Phage-868],,,0.5,0.05
YCEGHAPVYMQKCL [Phage-878],,,0.44,0.08
YCEGHLAVHMSKCL [Phage-854],,,0.62,0.06
YCDGHSTEYMWKCL [Phage-874],,,0.49,0.06
YCEGHLQEYMGKCL [Phage-860],,,0.58,0.25
YCDGHIMPYLDKCL [Phage-862],,,0.57,0.05
"YCDGHAQEYMDKCL (on phage, pIII fusion) [Phage-500]",0.08,1.62,,
"YCDGHAKEYMDKCL (on phage, pIII fusion) [Phage-452]",0.08,1.68,,
YCEGHVPQYMGKCL [Phage-869],,,0.5,0.08
YCDGHVTEYMAKCL [Phage-861],,,0.58,0.07
"YCEGHAPQYMNKCL (on phage, pIII fusion) [Phage-456]",0.08,1.67,,
"YCEGHAPQYMTKCL (on phage, pIII fusion) [Phage-461]",0.08,1.67,,
"YCDGHSWQYISKCL (on phage, pIII fusion) [Phage-455]",0.05,1.67,,
YCDGHAAMYMSKCL [Phage-870],,,0.5,0.07
YCEGHMQWYMAKCL [Phage-877],,,0.45,0.09

Binder,Anti-CD28 Fab signal in the presence of CD28 [1],"Anti-CD28 Fab (SEQ ID NOs: 202, 203) signal [2]","Anti-CD28 Fab (SEQ ID NOs: 202, 203) signal [3]",Anti-CD28 Fab signal in the presence of CD28 [4]
YCAGHAQEYMRKCL [Phage-872],,,0.49,0.07
YCAGHDAEYMQKCL [Phage-876],,,0.46,0.06
YCEGHVELYRQKCL [Phage-864],,,0.56,0.06
YCEGHIKDYMTKCL [Phage-875],,,0.47,0.08
YCEGHLGLYMKKCL [Phage-871],,,0.49,0.06
YCTGWQVAYMQNCF [Phage-884],,,0.42,0.06
YCAGHIPQYLNKCL [Phage-873],,,0.49,0.07
YCDGHAAWYLQKCL [Phage-850],,,0.64,0.07
YCEGHSRQYMEKCM [Phage-852],,,0.63,0.33
"YCDGHAAEYMAKCV (on phage, pIII fusion) [Phage-459]",0.07,1.67,,
YCDGHSQIYMSKCL [Phage-882],,,0.42,0.06
YCQGHSELYMSKCL [Phage-858],,,0.6,0.08
YCEGHIGDYIAKCL [Phage-857],,,0.61,0.36
YCDGHDEQYLMKCL [Phage-879],,,0.44,0.07
YCQGHLPIYIQKCL [Phage-866],,,0.51,0.07
"YCDGHSREYMSKCL (on phage, pIII fusion) [Phage-458]",0.1,1.67,,
"YCDGHSREYMNKCL (on phage, pIII fusion) [Phage-469]",0.06,1.66,,
YCDGHAWWYMEKCL [Phage-849],,,0.64,0.06
YCEGHLDEYLQKCM [Phage-867],,,0.51,0.08
YCDGHWPGYLWKCL [Phage-883],,,0.42,0.06
YCSGHLPMYMAKCL [Phage-853],,,0.62,0.13
YCAGHLDEYMEKCL [Phage-885],,,0.4,0.07
"YCDGHSPAYIWKCL (on phage, pIII fusion) [Phage-450]",0.08,1.68,,
YCDGHTWMYKQKCL [Phage-886],,,0.4,0.08
YCEGHKKEYMLKCL [Phage-863],,,0.56,0.08
